According to the RNAGym collection of RNA variant scans (doi:10.1073/pnas.2313332121):

B1: TPR t1 (parent)
chain: GACCAAUCUGCCCUCAGAGCUCGAGAACAUCUUCGGAUGCAGAGGAGGCAGGCUUCGGUGGCGCGAUAGCGCCAACGUCCUCAACCUCCAAUGCAUCCCACCACAUGAUGAUGCCUGAAGAGCCUUGGUUUUUUG

Variants of: B1
Assay: polymerase ribozyme fitness, log enrichment relative to wild type (log ratio); higher = more active; in vitro selection for triplet polymerase activity
In short: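 Libraries of mutants in each subunit of a heterodimeric triplet polymerase ribozyme were generated by PCR and transcribed. In triplicate, each went through one in vitro selection round: annealing with biotinylated primer, partner subunit and triplets; frozen incubation at −7 °C; gel excision of extended constructs; streptavidin-bead capture; RT-PCR. Fitness, taken from Illumina sequencing of input and output libraries, is the logarithm of a genotype's enrichment over wild-type enrichment, averaged across replicates with inverse-variance weights. The logarithm is base 2, and genotypes needed ≥10 input reads and ≥1 read per output to be kept.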

Point of comparison: GACCAAUCUGCCCUCAGAGCUCGAGAACAUCUUCGGAUUCAGAGGAGGCAGGCUUCGGUGGCGCGAUAGCGCCAACGUCCUCAACCUCCAAUGCAACCCACCACAUGAUGAUGCAUGAAGAGCCUGGGUUUUUUG, “polymerase ribozyme fitness (log ratio)” value -6.69. Against it:
- GACCAAUCUGCCCUCAGAGCUCGAGAACAUCUUCGGAUUCAGAGUAGGCAGGCUUCGGUGGUGCGAUAGCGCCAACGUCCUCAACCUCCAAUGCAUCCCACCACAUGAUGACGCCUGAAGAGCCUUGGUUUUUUG — higher, -0.882
- GACCAAUCUGCCCUCAGAGCUCGAGAACAUCUUCGGAUUCAGAGGAGGCAGGCUUCGGUGGCGCGAUAGCGCCAACGGCCUCAACCUCCAAUGCAUCCCACCACAUGAUGAUGCCUGAAGAGCCUUGGUUUUUUG — higher, -0.403
- GACCAAUCUGCCCUCAGAGCUCGAGAACAUCUUCGGAUUCAGAGGAGGCAGGCUUCGGUGGCGCGAUAGCGCCAACGCCCUCAACCUCCAAUGCAUCCCACCACAUGAUGAUGCCUGAAGAGCCUUGGUUUUUUG — higher, -0.554
- GACCAAUCUGCCCUCAGAGCUCGAGAACAUCUUCGGAUUCAGAGGAGGCAGGCUUCGGUGGCGCGAUAGCGCCAACGUCCUCAACCUCCAAUGCAUCCCACCACAUGAUGAUGCCUAAAGAGCCUUGGUUUUUUG — higher, -2.1
- GACCAAUCUGCCCUCAGAGCUCGAGAACAUCUUCGGAUUCAGAGGAGGCAGGCUUCGGUGUCGCGAUAGCGCCAACGUCCUCAACCUCCAAUGCAUCCCACCACAUGAUGAUGCCUGAAGCGCCUUGGUUUUUUG — higher, 1.22
- GACCAAUCUGCCCUCAGAGCUCGAGAACAUCUUCGGAUUCAGAGGAGGCAGGCUUCGAUGGCGCGAUAGCGCCAACGUCCUCAACCUCCAAUGCAUCCCACCACAUGAUGAUGCCUGAAGAGCCUUGGUUUUUUG — higher, 0.844
- GACCAAUCUGCCCUCAGAGCUCGAGAACAUCUUCGGAUUCAGAGGAGGCAGGCUUCGGUGGCGCGAUAGCGCCAACGGCCUCCACCUCCAGUGCAUCCCACCACAUGAUGAUGCCUGAAGAGCCUUGGAUUUUUG — higher, -3.94
- GACCAAUCUGCCCUCAGAGCUCGAGAACAUCUUCGGAUUCAGAGGAGGCAGGCUUCGGUGGCGCGAUAGCGCCAACGUCCUCAACCUCCAAUGCAUCCCACCACAUGAUGACGCCUGAAGAGCCUUAGUUUUUUG — higher, -0.476
- GACCAAUCUGCCCUCAGAGCUCGAGAACAUCUUCGGAUUCAGAGGAGGCAGGCUUCGCUGGCGCGAUAGCACCAACGUCCUCAACCUCCAAUGCAUCCCACCACAUGAUCAUGCCUGAAGAGCCUUGGUUUUUUG — higher, -6.06
- GACCAAUCUGCCCUCAGAGCUCGAGAACAUCUUCGGAUUCAGAGGAGGCAGGCUUCGGUAACGCGAUAGCGCCAACGUCCUCAACCCCCAAUGCAUCCCAUCACAUGAUGAUGCCUGAAGAGCCUUGGUUUUUUG — higher, -3.02
- GACCAAUCUGCCCUCAGAGCUCGAGAACAUCUUCGGAUUCAGAGGAGGCAGGCUUCGGUGUCGCGAUAGCGCCAACGUCCUCAACCUCCAAUGCAUCCCACCACAUGAUGAUGCCUGAAGAGCCUUGGUUUUUUG — higher, 0.39
- GACCAAUCUGCCCUCAGAGCUCGAGAACAUCUUCGGAUUCAGAGGAGGCAGGCUUCGGUGACGCGAUAGCGCCAACGUCCUCAACCUCCAAUGCAUCCCACCACAUGAUGAUGCCUGAAGAGCCUUGGUUUUUUG — higher, -0.103
- GACCAAUCUGCCCUCAGAGCUCGAGAACAUCUUCGGAUUCAGAGGAGGCAGGCUUCAGUGGCGCGAUAGCGCCAACGUCCUCAACCUCCAAUGCAUCCCACCACAUGAUGAUGCCUGAAGAGCCUUGGUUUUUUG — higher, -0.803
- GACCAAUCUGCCCUCAGAGCUCGAGAACAUCUUCGGAUUCAGAGGAGGCAGGCUUCGGUGGCGCGAUAGCGCCAACGUCCUCAACCUCCAAUGCAUCCCACCACAUGAUGAUGCCUGAAGAGCCUUGUUUUUUUG — higher, -3.06
- GACCAAUCUGCCCUCAGAGCUCGAGAACAUCUUCGGAUUCAGAGGAGGCAGUCUUCGGUGUCGCGAUAGCGCCAACGUCCUCAACCUCCAAUGCAUCCCACUACAUGAUGAUGCCUGAAGAGCCUUGGUUUUUUG — higher, -4.31
- GACCAAUCUGCCCUCAGAGCUCGAGAACAUCUUCGGAUUCACAGGAGGCAGGCUUCGGUGGCGCGAUAGCGCCAACGUCCUCAACCUCCAAUGCAUCCCACCACAUGAUGAUGCCUGAAGAGCCUUGGUUUUUUG — higher, -2.2
- GACCAAUCUGCCCUCAGAGCUCGAGAACAUCUUCGGAUUCAGAGGAGGCAGGCUUCGAUGGCGCGAUAGCGCCAACGUCCUCAACCUCCAAUGCAUCCCACCACCUGAUGAUGCCUGAAGAGCCUUGGUUUUUUG — higher, -5.05
- GACCAAUCUGCCCUCAGAGCUCGAGAACAUCUUCGGAUUCAGAGGAGGCAGGCUUCGGUGGCGCGAUAGCCCCAACGUCCUCAACCUCCAAUGCAUCCCACCACAUGAUGAUGCCGGAAGAGCCUUGGUUUUUUG — higher, -3.1
- GACCAAUCUGCCCUCAGAGCUCGAGAACAUCUUCGGAUUCAGAGGAGGCAGGCUACGGUAGCGCGAUAGCGCCAACGUCCUCAACCUCCAAUGCAUCCCACCACAUGAUGAUGCCUGAAGAGCCUUGGUUUUUUG — higher, -0.52
- GACCAAUCUGCCCUCAGAGCUCGAGAACAUCUUCGGAUUCAGAGGAGGCAGGCUUCGGUGGCUCGAUAGCGCCAACGUCCUCAACCUCCAAUGCAUCCCACCACAUGAUGAUGCCUGAAGUGCCUUGGUUUUUUA — higher, 0.925
- GACCAAUCUGCCCUCAGAGCUCGAGAACAUCUUCGGAUUCAGAAGAGGCAGGCUUCGGUGGCGCGAUAGCGCCAACGUCCUCAACCUCCAAUGCAUCCCACCACAUGAUGAUGCCUGAAGAGCCUUGGUUUUUUG — higher, -1.38
- GACCAAUCUGCCCUCAGAGCUCGAGAACAUCUUCGGAUUCAGAGGAGACAGGCUUCGGUGGCGCGAUAGUGCCAACGUCCUCAACCUCCAAUGCAUCCCACCACAUGAUGAUGCCUGAAGAGCCUUGGUUUUUUG — higher, -1.15
- GACCAAUCUGCCCUCAGAGCUCGAGAACAUCUUCGGAUUCAGAGGAGGCAGGCUGCGGUGGCGCGAUAGCGCCCCCGUCCUCAACCUCCAAUGCAUCCCACCAUAUGAUGAUCCCUGAAGAGCCUUGGUUUUUUG — higher, -3.51
- GACCAAUCUGCCCUCAGAGCUCGAGAACAUCUUCGGAUUCAGAGGAGACAGGCUUCGGUGCCGCGAUAGCGCCAACGUCCUCAACCUCCAAUGCAUCCCACCACAUGAUGAUGCCUGAAGAGCCUUGGUUUUUUG — higher, -2.96
- GACCAAUCUGCCCUCAGAGCUCGAGAACAUCUUCGGAUUCAGAGGAGGCAUGCUUCGGUGGCGCGAUAGCGCCAACGUCCUCAACCUCCAAUGCAUCCCACCACAUGAUGAUGCCUGAAGAGCCUUGGUUUUUUG — higher, -4.93
- GACCAAUCUGCCCUCAGAGCUCGAGAACAUCUUCGGAUUCAGAGGAGGCAGGCGUAGGUGGCGCGAUAGCGCCAACGUCCUCCACCUCUAAUGCAUCCCACCACAUGAUGAUGCCUGAAGAGCCUUGGUUUUUUG — higher, -3.7
- GACCAAUCUGCCCUCAGAGCUCGAGAACAUCUUCGGAUUCAGAGGAGGCAGCCUUCGGUGGCGCGAUAGCGCCAACGUCCUCAACCUCCAAUGCUUCCCACCACAUGAUGAUGCAUGGAGAGCCUUGGUUUUUUG — higher, -3.5
- GACCAAUCUGCCCUCAGAGCUCGAGAACAUCUUCGGAUUCAGAGGAGGCAGGCUUCGGUCACGCGAUAGCGCCAACGUCCUCAACCUCCAAUGCAUCCCACCACAUGAUGAUGCCUGUAGAGCCUUGGUUUUUUG — higher, -1.64
- GACCAAUCUGCCCUCAGAGCUCGAGAACAUCUUCGGAUUCAGAGGAGUCAGGCUUCGGUGGCGCGAUAGCGCCAACGUCCUCAACCUCCUAUGCAUCCCACCACAUGAUGAUGCCUGAAGAGCCUUGGUUUUUUG — higher, -2.92
- GACCAAUCUGCCCUCAGAGCUCGAGAACAUCUUCGGAUUCAGAGGAGGCAGGCUUCGGUGGCUCGAUAGCGCCAACGUCCUCAACCUCCAAUGCAUCCCACCACAUGAUGAUACCUGAAGAGCCUUGGUUUUUUG — higher, -3.09
- GACCAAUCUGCCCUCAGAGCUCGAGAACAUCUUCGGAUUCAGAGGAAGCAGGCUUCGGUGGCGCGAUAGCGCCAACGUCCUCAACUUCCAAUGCAUCCCAACACAUGAUGAUUCCUGAAGAGCCUUGGUUUUUUG — higher, -4.62
- GACCAAUCUGCCCUCAGAGCUCGAGAACAUCUUCGGAUUCAGACGAGGCAGGCUUCGGAGGCGCGAUAGCGCCAACGUCCUCAACCUCCAAUGCAUCCCACCACAUGAUGAUGCCUGAAGAGCCUUGGUUUUUUG — higher, -2.12
- GACCAAUCUGCCCUCAGAGCUCGAGAACAUCUUCGGAUUCAGAGGAGCCAGGCUUCGGUGGCGCGAUAGCGCCAACGGCCUCAACCUCCAAUGCAUCCCACCACAUGAUGAUUCCUGAAGAGCCUUGGUUUUUUG — higher, -4.42
- GACCAAUCUGCCCUCAGAGCUCGAGAACAUCUUCGGAUUCAGAGGAGGCAGGCUUCGGUUGCGCGAUAGCGCCAACGUCCUCAACCUCCAAUGCAUCCCACCACAUGAUGAUGCCUGAAGAGCCUUGGGUUUUUG — higher, -2.5
- GACCAAUCUGCCCUCAGAGCUCGAGAACAUCUUCGGAUUCAGAGGAGGCAGUCUUCGGUGGCGCGAUAGCGCCAACGUCCUCAACCUCCAAUGCUUCCCACCACAUGAGGAUGCCUGAAGAGCCUUGGUUUUUUG — higher, -6.38
- GACCAAUCUGCCCUCAGAGCUCGAGAACAUCUUCGGAUUCAGAGGAGGCAGGCUUCGGUGGCGCGAUAUCGCCAACGUCCUCAACCUCCAAUGCAUCCCACCACAUGAUGAUGCCUGAAGAGCCUUGGUUUUUUG — higher, 0.0399
- GACCAAUCUGCCCUCAGAGCUCGAGAACAUCUUCGGAUUCAGAGUAGACAGGCUUCGGUGGCGCGAUAGCGCAAACGUGCUCAACCUCCAAUGCAUCCCACCACAUGAUGAUACCUGAAGAGCCUUGGUUUUUUG — higher, -5.88
- GACCAAUCUGCCCUCAGAGCUCGAGAACAUCUUCGGAUUCAGAGGAGGCAGGCUUCGGUCGUGCGAUAGCGCCAACGUCCUCAACCUCCAAUGCAUUCCACCACAUGAUGAUGCCUGAAGAGCCUUGGUUUUUUG — higher, -3.98
- GACCAAUCUGCCCUCAGAGCUCGAGAACAUCUUCGGAUUCAGAGGAGGCAGGCUUCGGUGGCGCGAUAACGCCAACGACCUCAACCUCCAAUGCAUCCCACCACAUGAUGAUGCCUGAACAGCCUUGGUUUUCUG — higher, -2.17
- GACCAAUCUGCCCUCAGAGCUCGAGAACAUCUUCGGAUUCAGAGGAGGCAGGCUUCGGUGGCGCGAUAGCGCCAACGCCCUCAACCUCCAAUGCAUCCCACCACAUGAUGAUGCCUGAAGUGCCUUGGUUUUUUG — higher, 1.16
- GACCAAUCUGCCCUCAGAGCUCGAGAACAUCUUCGGAUUCAGAGGAGGCAGGCUUCGGUGGCGCGAUAGCGCCAACGUCCUCAACCUCCAAUGCAUCCCACCACAAGAUGAUGCCUGAAGAGCCUUAGUUUUUUG — higher, -2.14
